Results on five molecules are retold here after patent EP4810516A1 (Shanghai Shengdi Pharmaceutical Co., Ltd., dated 2026).

In assay [1] the target is T1, recombinant human γ8δ2 TCR protein (human).
T1 chain 1: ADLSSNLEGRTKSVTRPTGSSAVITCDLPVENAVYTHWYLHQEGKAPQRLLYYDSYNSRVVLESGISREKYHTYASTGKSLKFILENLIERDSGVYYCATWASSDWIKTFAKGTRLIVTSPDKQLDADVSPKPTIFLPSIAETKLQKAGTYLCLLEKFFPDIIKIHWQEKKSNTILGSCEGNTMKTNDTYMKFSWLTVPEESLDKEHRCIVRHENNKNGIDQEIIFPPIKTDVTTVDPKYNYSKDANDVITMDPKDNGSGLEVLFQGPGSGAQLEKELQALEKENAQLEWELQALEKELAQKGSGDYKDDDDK
T1 chain 2: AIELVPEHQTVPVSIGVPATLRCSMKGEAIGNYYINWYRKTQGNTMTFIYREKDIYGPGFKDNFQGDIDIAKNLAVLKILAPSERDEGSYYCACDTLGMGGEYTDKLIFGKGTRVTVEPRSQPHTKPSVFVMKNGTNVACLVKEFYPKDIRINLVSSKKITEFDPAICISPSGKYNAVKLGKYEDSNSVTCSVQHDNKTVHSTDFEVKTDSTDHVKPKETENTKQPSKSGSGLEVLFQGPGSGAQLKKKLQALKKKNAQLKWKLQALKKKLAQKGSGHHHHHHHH
Description: ELISA, plate coated with 1 µg/mL recombinant TCR protein. A general note: In an ELISA, binding on a coated surface is turned into a signal by an enzyme label.

Assay [2] deals with T1, recombinant human γ8δ2 TCR protein. Description: ELISA, plate coated with 1 µg/mL recombinant TCR protein, antibody at 30 nM.
In assay [3] the target is T2, human GPC3 naturally expressed on tumor cells (human, UniProt P51654 25-580). Description: cell-based or functional assay.
T2 sequence (P51654 25-580, form in doubt): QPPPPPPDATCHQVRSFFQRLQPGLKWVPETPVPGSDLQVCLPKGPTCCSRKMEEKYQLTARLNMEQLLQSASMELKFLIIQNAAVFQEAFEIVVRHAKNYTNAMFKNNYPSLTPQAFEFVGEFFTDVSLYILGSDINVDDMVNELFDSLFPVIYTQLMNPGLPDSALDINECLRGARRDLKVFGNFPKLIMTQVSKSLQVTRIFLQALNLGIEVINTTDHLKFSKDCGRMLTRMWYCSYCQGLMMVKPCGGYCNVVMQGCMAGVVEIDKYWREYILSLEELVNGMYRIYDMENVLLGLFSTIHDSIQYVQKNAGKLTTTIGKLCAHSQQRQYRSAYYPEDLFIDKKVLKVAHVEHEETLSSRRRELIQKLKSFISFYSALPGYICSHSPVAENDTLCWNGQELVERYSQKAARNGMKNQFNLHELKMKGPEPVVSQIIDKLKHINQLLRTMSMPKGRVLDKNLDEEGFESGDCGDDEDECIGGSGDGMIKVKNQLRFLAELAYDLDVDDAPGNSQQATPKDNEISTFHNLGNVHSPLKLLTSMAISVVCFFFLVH
Assay [4] concerns the target T2, human GPC3 naturally expressed on tumor …. In words: FACS on HepG2 cells (natural human GPC3), anti-human Fc secondary.
The target in assay [5] is T3, human GPC3 (Sino Biological, Cat#10088-H08H) (human, UniProt P51654 25-559).
T3 construct: Bought protein; also called human GPC3 protein
T3 sequence (P51654 25-559 limits assumed): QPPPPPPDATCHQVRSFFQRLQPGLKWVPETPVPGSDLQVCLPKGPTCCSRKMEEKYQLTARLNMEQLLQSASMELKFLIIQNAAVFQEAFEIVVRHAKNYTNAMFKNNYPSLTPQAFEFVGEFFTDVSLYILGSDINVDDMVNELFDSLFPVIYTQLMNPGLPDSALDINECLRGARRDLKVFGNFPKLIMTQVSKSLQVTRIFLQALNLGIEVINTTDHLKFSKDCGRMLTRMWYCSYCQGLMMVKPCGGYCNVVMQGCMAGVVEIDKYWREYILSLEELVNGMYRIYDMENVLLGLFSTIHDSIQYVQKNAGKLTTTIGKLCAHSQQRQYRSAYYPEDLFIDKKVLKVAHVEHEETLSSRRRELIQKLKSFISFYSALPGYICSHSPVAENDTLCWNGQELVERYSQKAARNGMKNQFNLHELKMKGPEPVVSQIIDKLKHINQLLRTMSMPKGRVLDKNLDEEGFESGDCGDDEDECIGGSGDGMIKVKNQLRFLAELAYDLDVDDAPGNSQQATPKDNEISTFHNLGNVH
Description: SPR (Biacore 8K), antibody captured on Protein A chip, antigen as analyte. On the technique in general: Surface plasmon resonance follows binding to a sensor surface in real time, without labels.

In assay [6] the target is T4, cynomolgus monkey GPC3 (Acrobiosystems, Cat#GP3-C5225) (cynomolgus monkey, UniProt A0A2K5VK50 24-558).
T4 construct: Bought protein
The assay is described as above.

For assay [7], the target named is T5, recombinant monkey (Macaca mulatta) γ9δ2 TCR protein (monkey (Macaca mulatta); called …).
T5 construct: also called Monkey γ9δ2 TCR; Cynomolgus monkey γ9δ2
T5 V domain 1: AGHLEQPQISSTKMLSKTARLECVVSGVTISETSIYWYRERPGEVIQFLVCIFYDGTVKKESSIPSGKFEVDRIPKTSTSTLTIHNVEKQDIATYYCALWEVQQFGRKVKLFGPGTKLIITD
T5 V domain 2: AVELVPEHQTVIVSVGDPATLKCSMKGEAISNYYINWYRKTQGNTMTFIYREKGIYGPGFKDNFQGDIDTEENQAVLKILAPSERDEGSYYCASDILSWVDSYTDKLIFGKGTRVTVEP
The assay is described as above.

Assay [8] deals with T2, human GPC3 naturally expressed on tumor …. Description: cell-based or functional assay. This is another data set of the same source.

B1: SDP01315 (antibody, V domains shown)
VH: EVKLVESGGGLVKPGGSLKLSCAASGFTFSSYAMSWVRQTPEKRLEWVASISSGGSTYYPDSVKGRFTISRDNARNILYLQMSSLRSEDTAMYYCARDGYPPFDYWGQGTTLTVSS
VL: DIVMTQSQKFMSTSVGDRVSVTCKASQNVGTNVAWYQQKPGQSPKALIYSASYRYSGVPDRFTGSGSGTDFTLTISNVQSEDLAEYFCQQYNSFPLTFGSGTKLEIK
notes: Tested as a chimeric antibody (Protein A purified, detected with anti-human Fc); also called clone No. bph-003; murine-derived anti-γδTCR antibody
As for B1, in assay [1], the binding result is on record as “no binding (tested: 30 nM)”. The “absorbance at 450 nm” value in assay [2] amounted to 0.192 absorbance at 450 nm.

B2: SDP01346 (VHH, not shown: small tags and cut ends)
VHH: QVQLVESGGGLVQAGGSLRLSCTVSGSTFSDFAMGWLRQAPGKEREFVAAISWTGGRTYYADSVKGRFAISRDNGENTVYLQMNSLKSEDTAIYYCAASRDCSGPGCRVHEYDYWGQGTQVTVSS
notes: also called clone No. ac-025; anti-γδTCR single-domain antibody
Regarding B2, in assay [2], the “absorbance at 450 nm” value came to 0.108 absorbance at 450 nm.

B3: SDP01696 (bispecific antibody, human IgG1, kappa)
heavy 1: not shown
light 1: DIQMTQSPSSVSASVGDRVTITCKASQNVGTNVAWYQQKPGKAPKALIYSASYRYSGVPSRFSGSGSGTDFTLTISSLQPEDFATYYCQQYNSFPLTFGQGTKLEIKGGGGSGIPPKIECLPIDISIDEGKVLTVASAFTGEPTPEVTWSTGGRKIHSQEQGRFHIENTDDSTTLTIKDVQKQDGGLYTLTLRNEFGSDSATVNIHIRSI
heavy 2: QVQLVQSGAEVKKPGASVKVSCKASGYTFTDYEMHWVRQAPGQGLEWMGALDPKTGDTAYSQKFKGRVTLTADKSTSTAYMELSSLTSEDTAVYYCTRFYSYTYWGQGTLVTVSSASTKGPSVFPLAPSSKSTSGGTAALGCLVKDYFPEPVTVSWNSGALTSGVHTFPAVLQSSGLYSLSSVVTVPSSSLGTQTYICNVNHKPSNTKVDKKVEPKSCDKTHTCPPCPAPEFEGGPSVFLFPPKPKDTLMISRTPEVTCVVVDVSHEDPEVKFNWYVDGVEVHNAKTKPREEQYNSTYRVVSVLTVLHQDWLNGKEYKCKVSNKALPAPIEKTISKAKGQPREPQVCTLPPSREEMTKNQVSLSCAVKGFYPSDIAVEWESNGQPENNYKTTPPVLDSDGSFFLVSKLTVDKSRWQQGNVFSCSVMHEALHNHYTQKSLSLSPGK
light 2: DVVMTQSPLSLPVTPGEPASISCRSSQSLVHSNRNTYLHWYLQKPGQSPQLLIYKVSNRFSGVPDRFSGSGSGTDFTLKISRVEAEDVGVYYCSQNTHVPPTFGQGTKLEIKRTVAAPSVFIFPPSDEQLKSGTASVVCLLNNFYPREAKVQWKVDNALQSGNSQESVTEQDSKDSTYSLSSTLTLSKADYEKHKVYACEVTHQGLSSPVTKSFNRGEC
notes: also called anti-GPC3/γδTCR bispecific antibody (1+1, with SDP01315H2L2)
Broadly, the EC50 is the concentration needed to bring the measured effect to its halfway point. Usually Kd stands for a measure of binding affinity in units of concentration. On to B3, for which, in assay [3], the “γδT killing of HepG2, EC50 (LDH assay)” value came to 60 pM; the “γδT killing of HepG2, Emax (LDH assay)” value amounted to 70.1%; the “γδT killing of Huh-7, EC50 (LDH assay)” value was 210 pM; the “γδT killing of Huh-7, Emax (LDH assay)” value is 50.9%. In assay [3], the “γδT killing of MKN-45, EC50 (LDH assay)” value was 24 pM and the “γδT killing of MKN-45, Emax (LDH assay)” value is 11%. In assay [4], this molecule gave an EC50 of 5170 pM. This molecule also showed a Kd in assay [5] of 1740 pM. In assay [6], this molecule yielded a dissociation constant (Kd) of 1470 pM. Further, in assay [7], the Kd worked out at 42400 pM.

B4: SDP01716 (bispecific antibody, human IgG1, kappa)
heavy 1: not shown
heavy 2: QVQLVQSGAEVKKPGASVKVSCKASGYTFTDYEMHWVRQAPGQGLEWMGALDPKTGDTAYSQKFKGRVTLTADKSTSTAYMELSSLTSEDTAVYYCTRFYSYTYWGQGTLVTVSSASTKGPSVFPLAPSSKSTSGGTAALGCLVKDYFPEPVTVSWNSGALTSGVHTFPAVLQSSGLYSLSSVVTVPSSSLGTQTYICNVNHKPSNTKVDKKVEPKSCDKTHTCPPCPAPEFEGGPSVFLFPPKPKDTLMISRTPEVTCVVVDVSHEDPEVKFNWYVDGVEVHNAKTKPREEQYNSTYRVVSVLTVLHQDWLNGKEYKCKVSNKALPAPIEKTISKAKGQPREPQVCTLPPSREEMTKNQVSLSCAVKGFYPSDIAVEWESNGQPENNYKTTPPVLDSDGSFFLVSKLTVD
light: B3 light 2
notes: Knob-into-hole IgG1 Fc with L234F/L235E; also called anti-GPC3/γδTCR bispecific antibody (1+1, with SDP01346H4)
B4: in assay [3], the “γδT killing of HepG2, EC50 (LDH assay)” value was 10 pM; the “γδT killing of HepG2, Emax (LDH assay)” value is 70.3%; the “γδT killing of Huh-7, EC50 (LDH assay)” value is 60 pM; the “γδT killing of Huh-7, Emax (LDH assay)” value is 93.8%. Also, in assay [3], the “γδT killing of MKN-45, EC50 (LDH assay)” value is 4 pM and the “γδT killing of MKN-45, Emax (LDH assay)” value came to 10.3%. Also, in assay [8], the “Killing activity against HepG2, EC50, γδ T cells of donor #SC12004 (LDH assay)” value stood at 38 pM; the “Killing activity against HepG2, EC50, γδ T cells of donor #SC12392 (LDH assay)” value was found to be 33 pM; the “Killing activity against HepG2, EC50, γδ T cells of donor #XC11053 (LDH assay)” value amounted to 17 pM; the “Killing activity against HepG2, EC50, γδ T cells of donor #XC11061 (LDH assay)” value was found to be 54 pM. In assay [4], this molecule had an EC50 of 4850 pM. In assay [5], this molecule showed a dissociation constant (Kd) of 1650 pM. Also, in assay [6], the Kd is 1470 pM. The Kd in assay [7] was found to be 68800 pM.

B5: SDP01704 (bispecific antibody, human IgG1, kappa)
heavy 1: not shown
light 1: B3 light 1
heavy 2: QVQLVQSGAEVKKPGASVKVSCKASGYTFTDYEMHWVRQAPGQGLEWMGALDPKTGDTAYSQKFKGRVTLTADKSTSTAYMELSSLTSEDTAVYYCTRFYSYTYWGQGTLVTVSSASTKGPSVFPLAPSSKSTSGGTAALGCLVKDYFPEPVTVSWNSGALTSGVHTFPAVLQSSGLYSLSSVVTVPSSSLGTQTYICNVNHKPSNTKVDKKVEPKSCDGGGGSGGGGSQVQLVQSGAEVKKPGASVKVSCKASGYTFTDYEMHWVRQAPGQGLEWMGALDPKTGDTAYSQKFKGRVTLTADKSTSTAYMELSSLTSEDTAVYYCTRFYSYTYWGQGTLVTVSSASTKGPSVFPLAPSSKSTSGGTAALGCLVKDYFPEPVTVSWNSGALTSGVHTFPAVLQSSGLYSLSSVVTVPSSSLGTQTYICNVNHKPSNTKVDKKVEPKSCDKTHTCPPCPAPEFEGGPSVFLFPPKPKDTLMISRTPEVTCVVVDVSHEDPEVKFNWYVDGVEVHNAKTKPREEQYNSTYRVVSVLTVLHQDWLNGKEYKCKVSNKALPAPIEKTISKAKGQPREPQVCTLPPSREEMTKNQVSLSCAVKGFYPSDIAVEWESNGQPENNYKTTPPVLDSDGSFFLVSKLTVDKSRWQQGNVFSCSVMHEALHNHYTQKSLSLSPGK
light 2: B3 light 2
notes: Bivalent for GPC3; also called anti-GPC3/γδTCR bispecific antibody (2+1, with SDP01315H2L2)
In the case of B5, in assay [3], the “γδT killing of HepG2, EC50 (LDH assay)” value was 30 pM; the “γδT killing of HepG2, Emax (LDH assay)” value was determined as 72%; the “γδT killing of Huh-7, EC50 (LDH assay)” value came to 110 pM; the “γδT killing of Huh-7, Emax (LDH assay)” value is 61.7%. Moreover, in assay [3], the “γδT killing of MKN-45, EC50 (LDH assay)” value was determined as 16 pM and the “γδT killing of MKN-45, Emax (LDH assay)” value turned out to be 6.6%. In assay [4], this molecule gave an EC50 of 2470 pM. Moreover, the dissociation constant Kd in assay [5] stood at 1840 pM. In addition, in assay [6], binding was put at a Kd of 1630 pM. In assay [7], the Kd was 40600 pM.
